Target: recombinant caspase-3 (E. coli KRX lysate, pTS1k:caspase-3(T/S))
Assay: cell-based or functional assay

Work on HQ:CBS:HT (5x HQ tag:CBS:HaloTag) yielded an INDUCED luminescence, HisLink purification fraction E1 of 2.95e+06, an INDUCED luminescence, HisLink purification fraction E2 of 4.09e+07 and an INDUCED luminescence, HisLink purification fraction E3 of 3.29e+06. For the same substance, the INDUCED luminescence, HisLink purification fraction E4 was 216000, the INDUCED luminescence, HisLink purification fraction E5 was 48100 and the INDUCED luminescence, HisLink purification sample HSS was 1.29e+07. For the same substance, the INDUCED luminescence, HisLink purification sample NSM was 5.82e+06, the INDUCED luminescence, HisLink purification sample WASH was 3.71e+06 and the INDUCED luminescence, purified HQ:CBS:HT immobilised on HaloLink plate was 662000. For the same substance, the RESPONSE, HisLink purification fraction E1 was 699 fold, the RESPONSE, HisLink purification fraction E2 was 212 fold and the RESPONSE, HisLink purification fraction E3 was 178 fold. The RESPONSE, HisLink purification fraction E4 was 191 fold, the RESPONSE, HisLink purification fraction E5 was 178 fold and the RESPONSE, HisLink purification sample HSS was 43 fold. For the same substance, the RESPONSE, HisLink purification sample NSM was 33 fold, the RESPONSE, HisLink purification sample WASH was 479 fold and the RESPONSE, purified HQ:CBS:HT immobilised on HaloLink plate was 96 fold.
